Experimental findings from PMC10143822, “Structural Adaptation of the Single-Stranded DNA-Binding Protein C-Terminal to DNA Metabolizing Partners Guides Inhibitor Design” (Pharmaceutics, 2023) are described below.

One assay has as its target T1, ExoI (Escherichia coli, UniProt P04995).
T1 construct: His-tag (cleaved yes); host or cells: E. coli BL21 (DE3) pLysS
Kind of assay: biochemical. It is filed as binding, E. coli. How it is done: (§1) Triplicate measurements were performed using a Clariostar Plus Microplate Reader in 384-well plates for all fluorescence anisotropy (FA) experiments. The settings were 25 °C, excitation at 485 nm, emission at 510 nm, settling time of 0.2 s, and 200 flashes per well.
(§2) Competition fluorescence anisotropy experiments were carried out as follows: protein (0.5 μM either ExoI or RecO) was incubated with 50 nM F-wtSSB peptide and 0–500 μM unlabeled wtSSB (or a variant) peptide for 30 min at room temperature. For direct fluorescence anisotropy measurements, 16 µM ExoI and 7.5 µM RecO were used in the first well. After serial dilution, either 50 nM of F-mSSB or F-sSSB was added to the wells and then incubated for 30 min. Buffers used included 20 mM Tris-HCl (pH 8.0), 100 mM NaCl, 1 mM MgCl2, 1 mM 2-mercaptoethanol, 10% (v/v) glycerol, for ExoI and 20 mM Tris-HCl (pH 8.0), 200 mM NaCl, 1 mM 2-mercaptoethanol, 10% (v/v) glycerol, and 0.01% Triton-X 100 for RecO [37].
(§3) Fluorescence anisotropy values were normalized and are shown as bound fractions (BF, %). BF=r−rmin/λ(rmax−r)+r−rmin, I=2∗PG+S, r=S−PG/I, where r: anisotropy, I: total intensity, P: perpendicular intensity, S: parallel intensity, G: an instrument factor set to 1, BF: ligand fraction bound, and λ=λbound/λunbound=1 .
(§4) Competitive fluorescence anisotropy was analyzed in Origin Pro 9.5, and IC50 values were determined using the Logistic Nonlinear fit function and are shown as plots for each mutated position for each protein in Figures S4 and S6. EC50 values from direct fluorescence anisotropy titrations were plotted in Origin 9.5. Values were determined using the Logistics Nonlinear fit function.

A further assay deals with T2, RecO (Escherichia coli, UniProt P0A7H3).
T2 construct: His-tag (TEV site) (N, cleaved yes); made in house; host or cells: E. coli Rosetta cells
Kind of assay: biochemical. The assay is classed as binding. Particulars: 0.5 μM RecO, 50 nM F-wtSSB tracer, 0–500 μM unlabeled peptide, 30 min room temperature; 20 mM Tris-HCl pH 8.0, 200 mM NaCl, 10% glycerol, 0.01% Triton-X 100; 25 °C; triplicate; read-out: IC50 on RecO, competitive fluorescence anisotropy. How it is done:
as §1, §2, §3, §4
A general note: Polarisation of emitted light reports the rotation of a fluorescent probe.

Assay [1] concerns the target T3, E. coli Exonuclease I (E. coli, UniProt P04995 1-471).
T3 construct: Exonuclease I of E. coli, from plasmid pET14b-E. coli Exonuclease I (Addgene 104552); The His tag was cut off with thrombin only for the purified protein; also called ExoI; Exol; source: E. coli BL21 (DE3) pLysS, purified (Ni-NTA, heparin); also in cell lysate (pull-down)
T3 sequence: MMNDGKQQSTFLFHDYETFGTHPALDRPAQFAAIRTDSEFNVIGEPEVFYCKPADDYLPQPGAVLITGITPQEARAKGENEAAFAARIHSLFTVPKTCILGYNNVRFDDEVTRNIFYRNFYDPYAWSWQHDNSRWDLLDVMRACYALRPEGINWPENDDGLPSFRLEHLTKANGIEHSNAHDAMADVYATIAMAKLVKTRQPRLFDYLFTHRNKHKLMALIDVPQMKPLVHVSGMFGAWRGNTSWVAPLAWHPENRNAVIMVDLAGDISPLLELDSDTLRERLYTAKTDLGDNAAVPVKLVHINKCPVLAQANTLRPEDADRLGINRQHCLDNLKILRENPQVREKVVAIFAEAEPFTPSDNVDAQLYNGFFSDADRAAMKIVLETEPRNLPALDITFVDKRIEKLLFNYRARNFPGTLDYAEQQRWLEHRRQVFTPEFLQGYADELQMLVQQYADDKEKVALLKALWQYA
As to the kind of experiment: fluorescence polarisation; direct fluorescence anisotropy: ExoI serially diluted from 16 µM, 50 nM fluorescein-labelled peptide, 30 min, 25 °C; 20 mM Tris-HCl pH 8.0, 100 mM NaCl, 1 mM MgCl2, 1 mM 2-mercaptoethanol, 10% glycerol. Particulars: both partners purified.

A further assay deals with T4, Escherichia coli RecO (Escherichia coli, UniProt P0A7H3 1-242).
T4 construct: RecO of Escherichia coli, synthetic gene in pET28a+ with a TEV site at the 5' end; The His tag was cut off with TEV protease only for the purified protein; source: E. coli Rosetta, purified (Ni-NTA, heparin); also in cell lysate (pull-down); not shown: His tag, N-terminal, cleaved
T4 sequence: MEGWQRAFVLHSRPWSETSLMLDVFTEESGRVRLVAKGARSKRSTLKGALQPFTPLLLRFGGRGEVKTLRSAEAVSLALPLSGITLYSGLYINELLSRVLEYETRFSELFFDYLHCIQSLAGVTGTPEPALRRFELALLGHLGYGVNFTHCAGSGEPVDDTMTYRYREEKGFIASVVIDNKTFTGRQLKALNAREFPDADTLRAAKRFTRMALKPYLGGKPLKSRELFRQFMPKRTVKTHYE
As to the kind of experiment: ITC; peptide in the syringe titrated into RecO in the cell; 50 mM HEPES pH 7.5, 50 mM NaCl, 25% glycerol, 1 mM TCEP; model A + B = C, stoichiometry fixed to 1:1, incompetent fraction fitted. Particulars: both partners purified. A general note: Isothermal titration calorimetry measures the heat released or taken up as one component is titrated into another.

Assay [2] addresses T3, E. coli Exonuclease I. As to the kind of experiment: ITC; peptide in the syringe titrated into ExoI in the cell; 20 mM Tris–HCl pH 8.0, 100 mM NaCl, 1 mM MgCl2, 4% glycerol, 1 mM β-mercaptoethanol; model A + B = C, stoichiometry fixed to 1:1, incompetent fraction fitted. Conditions: both partners purified.

Where a SMILES comes first, the peptide text is derived from it. Primed or numbered codes have the meaning given here. Where no end group is shown, it is not given here. [ ]: non-standard residue; d: D form. 5,6‑carboxyfluorescein = 5,6-carboxyfluorescein; Phe(4-CF3) = N[C@@H](Cc1ccc(C(F)(F)F)cc1)C(=O)O; Phe(3-Cl) = N[C@@H](Cc1cccc(Cl)c1)C(=O)O; Phe(4-Cl) = N[C@@H](Cc1ccc(Cl)cc1)C(=O)O; 3Pal = N[C@@H](Cc1cccnc1)C(=O)O; NMeD = CN[C@@H](CC(=O)O)C(=O)O; β3hD = NC(CC(=O)O)CC(=O)O; Pip′ = not defined here

T1 sequence (P04995 whole entry): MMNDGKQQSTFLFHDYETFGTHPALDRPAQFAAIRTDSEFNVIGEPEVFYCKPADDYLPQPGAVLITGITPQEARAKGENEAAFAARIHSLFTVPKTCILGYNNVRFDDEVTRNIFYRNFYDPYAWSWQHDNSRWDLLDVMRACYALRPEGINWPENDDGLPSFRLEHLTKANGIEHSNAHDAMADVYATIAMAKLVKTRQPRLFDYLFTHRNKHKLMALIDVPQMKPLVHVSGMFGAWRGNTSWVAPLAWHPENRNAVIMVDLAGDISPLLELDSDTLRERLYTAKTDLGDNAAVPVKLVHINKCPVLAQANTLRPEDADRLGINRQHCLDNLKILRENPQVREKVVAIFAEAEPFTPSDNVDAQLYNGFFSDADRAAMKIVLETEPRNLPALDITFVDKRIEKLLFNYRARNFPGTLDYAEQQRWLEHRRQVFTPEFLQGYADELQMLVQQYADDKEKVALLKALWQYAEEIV

For the molecule `CC[C@H](C)[C@H](NC(=O)[C@H](CC(=O)O)NC(=O)[C@H](CC(=O)O)NC(=O)[C@H](CC(=O)O)NC(=O)[C@H](Cc1ccccc1)NC(=O)[C@H](CC(=O)O)NC(C)=O)C(=O)N1CCC[C@H]1C(=O)N[C@@H](Cc1cccnc1)C(=O)O` [3Pal8] (Ac-DFDDDIP[3Pal]-OH), the IC50 (as a rule, the midpoint of a concentration-inhibition curve) at ExoI was determined as 19900 ± 2810 nM; at RecO, 31900 ± 4160 nM.

In the case of `CC[C@H](C)[C@H](NC(=O)[C@H](CC(=O)O)NC(=O)[C@H](CC(=O)O)NC(=O)[C@H](CC(=O)O)NC(=O)[C@H](Cc1ccccc1)NC(=O)[C@H](CC(=O)O)N(C)C(C)=O)C(=O)N1CCC[C@H]1C(=O)N[C@@H](Cc1ccccc1)C(=O)O` [NM-Asp1] (Ac-[NMeD]FDDDIPF-OH), the values for the concentration for half-maximal inhibition (IC50) against ExoI and at RecO were 2170 ± 150 nM and 5100 ± 640 nM, respectively.

Take `CC[C@H](C)[C@H](NC(=O)[C@H](CC(=O)O)NC(=O)[C@H](CC(=O)O)N(C)C(=O)[C@H](CC(=O)O)NC(=O)[C@H](Cc1ccccc1)NC(=O)[C@H](CC(=O)O)NC(C)=O)C(=O)N1CCC[C@H]1C(=O)N[C@@H](Cc1ccccc1)C(=O)O` [NM-Asp4] (Ac-DFD[NMeD]DIPF-OH): the IC50 against ExoI turned out to be 1270 ± 140 nM; on RecO, 3850 ± 1030 nM.

Turning to `CC[C@H](C)[C@H](NC(=O)[C@H](CC(=O)O)NC(=O)[C@H](CC(=O)O)NC(=O)C[C@H](CC(=O)O)NC(=O)[C@H](Cc1ccccc1)NC(=O)[C@H](CC(=O)O)NC(C)=O)C(=O)N1CCC[C@H]1C(=O)N[C@@H](Cc1ccccc1)C(=O)O` [β3-Asp3] (Ac-DF[β3hD]DDIPF-OH), the IC50 is 3650 ± 160 nM on ExoI and 8920 ± 390 nM on RecO.

B1: F-4Cl-Phe2 (fluorescein-labelled single mutant) (peptide)
peptide: {5,6‑carboxyfluorescein}-GGD[Phe(4-Cl)]DDDIPF
notes: two glycines between the 5,6-carboxyfluorescein and the peptide; E. coli SSB-Ct, residues 171-178; F at position 2 stands for 4-Cl-Phe; numbers count on: the octapeptide (position 1 = SSB residue 171); One of Compounds 54-62 of the Supplementary Material; also called F-mSSB 4Cl-Phe2; source: synthetic peptide
Take B1: the EC50 (in general, the concentration that produces a half-maximal response) with E. coli Exonuclease I [1] was found to be 150 ± 20 nM.

B2: F-Leu6 (fluorescein-labelled single mutant) (peptide)
peptide: {5,6‑carboxyfluorescein}-GGDFDDDLPF
notes: two glycines between the 5,6-carboxyfluorescein and the peptide; E. coli SSB-Ct, residues 171-178; numbers count on: the octapeptide (position 1 = SSB residue 171); One of Compounds 54-62 of the Supplementary Material; also called F-mSSB Leu6; source: synthetic peptide
Turning to B2, the response with E. coli Exonuclease I [1] was half-maximal at 200 ± 30 nM (EC50).

B3: F-4CF3-Phe8 (fluorescein-labelled single mutant) (peptide)
peptide: {5,6‑carboxyfluorescein}-GGDFDDDIP[Phe(4-CF3)]
notes: two glycines between the 5,6-carboxyfluorescein and the peptide; E. coli SSB-Ct, residues 171-178; F at position 8 stands for 4-CF3-Phe; numbers count on: the octapeptide (position 1 = SSB residue 171); One of Compounds 54-62 of the Supplementary Material; also called F-mSSB 4CF3-Phe8; source: synthetic peptide
Turning to B3, the 50% effective concentration (EC50) with E. coli Exonuclease I [1] turned out to be 90 ± 10 nM.

B4: F-4CF3-Phe2 (fluorescein-labelled single mutant) (peptide)
peptide: {5,6‑carboxyfluorescein}-GGD[Phe(4-CF3)]DDDIPF
notes: two glycines between the 5,6-carboxyfluorescein and the peptide; E. coli SSB-Ct, residues 171-178; F at position 2 stands for 4-CF3-Phe; numbers count on: the octapeptide (position 1 = SSB residue 171); One of Compounds 54-62 of the Supplementary Material; also called F-mSSB 4CF3-Phe2; source: synthetic peptide
In turn, B4 returned an EC50 in the assay with E. coli Exonuclease I [1] of 40 ± 2 nM.

B5: R1-sSSB-Ct (Asp–4Cl-Phe–NM-Asp–Asp–Glu–Leu–Pro–3Cl-Phe) (peptide)
peptide: Ac-D[Phe(4-Cl)][NMeD]DELP[Phe(3-Cl)]
notes: SSB-Ct of E. coli SSB (residues 171-178) with combined modifications, printed in three-letter code; F2 stands for 4Cl-Phe, D3 for NM-Asp, F8 for 3Cl-Phe; numbers count on: the octapeptide (position 1 = SSB residue 171); source: synthetic peptide
On to B5, for which, in the assay with Escherichia coli RecO, the Kd (commonly the free concentration of one partner at which half of the binding sites on the other are occupied at equilibrium, for simple one-to-one binding) was 130 nM; the dH was -6.79 kcal/mol; the stoichiometry N – broadly, the number of molecules, sites or subunits per partner or assembly – came to 0.935.

B6: F-Pip7 (fluorescein-labelled single mutant) (peptide)
chain: {5,6‑carboxyfluorescein}-DFDDDI[Pip′]F
modifications: not fully specified
In turn, B6 had a half-maximal effective concentration (EC50) with E. coli Exonuclease I [1] of 90 ± 10 nM.

B7: E2-sSSB-Ct (Asp–4-CF3-Phe–Asp–Asp–Asp–Ile–Pro–4-CF3-Phe) (peptide)
peptide: Ac-D[Phe(4-CF3)]DDDIP[Phe(4-CF3)]
notes: SSB-Ct of E. coli SSB (residues 171-178), printed in three-letter code; F2 and F8 stand for 4-CF3-Phe; numbers count on: the octapeptide (position 1 = SSB residue 171); also called E2.SSB-Ct; source: synthetic peptide
Turning to B7, in the assay with E. coli Exonuclease I [2], the dH is -13.4 kcal/mol and the “stoichiometry N” value worked out at 0.885.
